Experimental data reported in publication PMC9935832, “Calcium-dependent protein kinase CDPK16 phosphorylates serine-856 of glutamate receptor-like GLR3.6 protein leading to salt-responsive root growth in Arabidopsis^#” (Frontiers in Plant Science, 2023).

T1: 6xHis-14-3-3ω (Arabidopsis, UniProt Q01525 1-259)
T1 construct: End of the His tag read from the printed name 6xHis-14-3-3ω; Vector map in Appendix 1B; construct as in Chen et al. (2018); also called recombinant 6xHis-14-3-3ω; source: E. coli BL21, purified (Ni-NTA agarose); not shown: 6xHis, N-terminal, kept
T1 sequence (looked up): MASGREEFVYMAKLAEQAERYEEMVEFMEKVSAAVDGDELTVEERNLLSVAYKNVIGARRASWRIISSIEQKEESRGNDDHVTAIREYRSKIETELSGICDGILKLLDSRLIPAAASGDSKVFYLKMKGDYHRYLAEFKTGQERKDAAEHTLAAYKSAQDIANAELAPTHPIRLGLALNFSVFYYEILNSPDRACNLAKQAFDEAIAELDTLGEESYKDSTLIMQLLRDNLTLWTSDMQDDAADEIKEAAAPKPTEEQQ


Biological target: T1, 6xHis-14-3-3ω
Experiment: pull-down; 6xHis-14-3-3ω and GST-fused GLR3.6 peptides (50 μg each) mixed with Ni-NTA agarose, 4°C, 2 h; western blot with α-His and α-GST
Settings: both partners purified

binding result | Binder
binds | EGSIRRRSSPSA (cloned by AscI and NotI into the GST-NRV vector; End of GST read from the printed name GST-GLR3.6; The vector-only control gives GST-RFP-Strep tag II, so the peptide fusion probably carries RFP and Strep tag II too; vector map in Appendix 1A; design as in Curran et al. (2011); also called GLR3.6 peptide fragment; source: E. coli BL21, purified (glutathione resin); not shown: GST, N-terminal, kept) [GST-GLR3.6 (GST-fused peptide fragment of GLR3.6, amino acids 854-865)]
binds | EGAIRRRSSPSA (peptide, UniProt Q84W41 854-865, looked up, End of GST read from the printed name; also called GLR3.6-S856A single mutant; source: E. coli BL21, purified (glutathione resin); not shown: GST, N-terminal, kept) [GST-GLR3.6-S856A (GST-fused peptide fragment)]
